What follows are sequences tested on Escherichia coli TOP10 (assay: shrunken log2 fold change of peptide-encoding DNA abundance (4.5 h post-induction vs induction); higher = less antimicrobial activity (less host growth inhibition)). Conditions: time post-induction: 4.5 h; library: site-saturation at positions 5, 18, 19, 20.
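Note: peptides expressed intracellularly from a pBAD plasmid library in pooled LB shake-flask culture, induced with 0.3% L-arabinose, DNA abundance read by NGS, three biological replicates, DESeq2 with apeglm shrinkage.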

| Sequence | shrunken log2 fold change |
| --- | --- |
| RRIRNRPPRLPRPRPRPNNPPRP | -0.511 |
| RRIRNRPPRLPRPRPRPNQCPRP | -0.136 |
| RRIRNRPPRLPRPRPRPNTAPRP | 0.0213 |
| RRIRNRPPRLPRPRPRPNTQPRP | -0.148 |
| RRIRNRPPRLPRPRPRPNVRPRP | -0.243 |
| RRIRNRPPRLPRPRPRPPAFPRP | 0.0832 |
| RRIRNRPPRLPRPRPRPPAGPRP | 0.637 |
| RRIRNRPPRLPRPRPRPPALPRP | 0.132 |
| RRIRNRPPRLPRPRPRPPAVPRP | 0.387 |
| RRIRNRPPRLPRPRPRPPDEPRP | 1.28 |
| RRIRNRPPRLPRPRPRPPDKPRP | 0.182 |
| RRIRNRPPRLPRPRPRPPEQPRP | 0.112 |
| RRIRNRPPRLPRPRPRPPFEPRP | 0.128 |
| RRIRNRPPRLPRPRPRPPFVPRP | 0.164 |
| RRIRNRPPRLPRPRPRPPHYPRP | -0.245 |
| RRIRNRPPRLPRPRPRPPIRPRP | 0.0511 |
| RRIRNRPPRLPRPRPRPPKCPRP | 0.189 |
| RRIRNRPPRLPRPRPRPPLQPRP | 0.213 |
| RRIRNRPPRLPRPRPRPPNGPRP | -0.00827 |
| RRIRNRPPRLPRPRPRPPPEPRP | 1.1 |
| RRIRNRPPRLPRPRPRPPQQPRP | 0.294 |
| RRIRNRPPRLPRPRPRPPRIPRP | 0.325 |
| RRIRNRPPRLPRPRPRPPRLPRP | 0.514 |
| RRIRNRPPRLPRPRPRPPSIPRP | -0.0153 |
| RRIRNRPPRLPRPRPRPPSKPRP | -0.161 |

| Sequence | shrunken log2 fold change |
| --- | --- |
| RRIRNRPPRLPRPRPRPPVYPRP | 0.111 |
| RRIRNRPPRLPRPRPRPPWGPRP | 0.254 |
| RRIRNRPPRLPRPRPRPPWHPRP | 0.129 |
| RRIRNRPPRLPRPRPRPPYFPRP | -0.172 |
| RRIRNRPPRLPRPRPRPPYSPRP | -0.604 |
| RRIRNRPPRLPRPRPRPQAIPRP | 0.00297 |
| RRIRNRPPRLPRPRPRPQEAPRP | -0.0152 |
| RRIRNRPPRLPRPRPRPQFQPRP | 0.0437 |
| RRIRNRPPRLPRPRPRPQGAPRP | -0.149 |
| RRIRNRPPRLPRPRPRPQGEPRP | -0.422 |
| RRIRNRPPRLPRPRPRPQGLPRP | -0.109 |
| RRIRNRPPRLPRPRPRPQGSPRP | -0.0968 |
| RRIRNRPPRLPRPRPRPQHFPRP | -0.0338 |
| RRIRNRPPRLPRPRPRPQKAPRP | -0.0017 |
| RRIRNRPPRLPRPRPRPQKDPRP | -0.564 |
| RRIRNRPPRLPRPRPRPQKMPRP | -0.134 |
| RRIRNRPPRLPRPRPRPQMYPRP | -0.864 |
| RRIRNRPPRLPRPRPRPQNHPRP | -0.685 |
| RRIRNRPPRLPRPRPRPQPNPRP | -0.047 |
| RRIRNRPPRLPRPRPRPQRRPRP | 0.135 |
| RRIRNRPPRLPRPRPRPQRYPRP | -0.602 |
| RRIRNRPPRLPRPRPRPQSDPRP | -0.174 |
| RRIRNRPPRLPRPRPRPQTTPRP | -0.149 |
| RRIRNRPPRLPRPRPRPQTVPRP | -0.0578 |
| RRIRNRPPRLPRPRPRPQVKPRP | 0.0117 |

| Sequence | shrunken log2 fold change |
| --- | --- |
| RRIRNRPPRLPRPRPRPQWHPRP | -0.481 |
| RRIRNRPPRLPRPRPRPQWSPRP | 0.129 |
| RRIRNRPPRLPRPRPRPRCPPRP | -0.0521 |
| RRIRNRPPRLPRPRPRPRDFPRP | 0.0201 |
| RRIRNRPPRLPRPRPRPRDLPRP | 0.186 |
| RRIRNRPPRLPRPRPRPREAPRP | 0.00436 |
| RRIRNRPPRLPRPRPRPREDPRP | 0.102 |
| RRIRNRPPRLPRPRPRPRESPRP | -0.0379 |
| RRIRNRPPRLPRPRPRPRFVPRP | -0.384 |
| RRIRNRPPRLPRPRPRPRGNPRP | 0.26 |
| RRIRNRPPRLPRPRPRPRGSPRP | 0.299 |
| RRIRNRPPRLPRPRPRPRINPRP | -0.14 |
| RRIRNRPPRLPRPRPRPRIWPRP | 0.0945 |
| RRIRNRPPRLPRPRPRPRLLPRP | 0.0984 |
| RRIRNRPPRLPRPRPRPRMQPRP | -0.0634 |
| RRIRNRPPRLPRPRPRPRPWPRP | 0.116 |
| RRIRNRPPRLPRPRPRPRQNPRP | -0.118 |
| RRIRNRPPRLPRPRPRPRRAPRP | 0.604 |
| RRIRNRPPRLPRPRPRPRRHPRP | 0.0212 |
| RRIRNRPPRLPRPRPRPRRMPRP | 0.207 |
| RRIRNRPPRLPRPRPRPRRRPRP | 0.558 |
| RRIRNRPPRLPRPRPRPRTTPRP | -0.0126 |
| RRIRNRPPRLPRPRPRPRVAPRP | 0.111 |
| RRIRNRPPRLPRPRPRPRVMPRP | 0.0236 |
| RRIRNRPPRLPRPRPRPRVWPRP | 3.4 |

| Sequence | shrunken log2 fold change |
| --- | --- |
| RRIRNRPPRLPRPRPRPRWFPRP | 0.173 |
| RRIRNRPPRLPRPRPRPRYAPRP | -0.0268 |
| RRIRNRPPRLPRPRPRPRYMPRP | -1.3 |
| RRIRNRPPRLPRPRPRPRYQPRP | -0.19 |
| RRIRNRPPRLPRPRPRPRYTPRP | -0.56 |
| RRIRNRPPRLPRPRPRPSCEPRP | -0.229 |
| RRIRNRPPRLPRPRPRPSDLPRP | -0.256 |
| RRIRNRPPRLPRPRPRPSDWPRP | 0.0113 |
| RRIRNRPPRLPRPRPRPSFNPRP | -0.143 |
| RRIRNRPPRLPRPRPRPSGDPRP | -0.252 |
| RRIRNRPPRLPRPRPRPSGPPRP | -0.0894 |
| RRIRNRPPRLPRPRPRPSGVPRP | -0.0499 |
| RRIRNRPPRLPRPRPRPSHHPRP | -0.421 |
| RRIRNRPPRLPRPRPRPSHQPRP | -0.374 |
| RRIRNRPPRLPRPRPRPSKIPRP | -0.846 |
| RRIRNRPPRLPRPRPRPSMLPRP | -0.145 |
| RRIRNRPPRLPRPRPRPSMWPRP | -0.0524 |
| RRIRNRPPRLPRPRPRPSNSPRP | -0.235 |
| RRIRNRPPRLPRPRPRPSPHPRP | -0.171 |
| RRIRNRPPRLPRPRPRPSSKPRP | -0.244 |
| RRIRNRPPRLPRPRPRPSSVPRP | 0.066 |
| RRIRNRPPRLPRPRPRPSSWPRP | 0.0908 |
| RRIRNRPPRLPRPRPRPSVIPRP | -0.781 |
| RRIRNRPPRLPRPRPRPSWRPRP | 0.0128 |
| RRIRNRPPRLPRPRPRPSYHPRP | -0.273 |

| Sequence | shrunken log2 fold change |
| --- | --- |
| RRIRNRPPRLPRPRPRPTAQPRP | 0.136 |
| RRIRNRPPRLPRPRPRPTCPPRP | 0.059 |
| RRIRNRPPRLPRPRPRPTDCPRP | -0.484 |
| RRIRNRPPRLPRPRPRPTEDPRP | -0.187 |
| RRIRNRPPRLPRPRPRPTERPRP | -0.25 |
| RRIRNRPPRLPRPRPRPTESPRP | -0.0455 |
| RRIRNRPPRLPRPRPRPTFEPRP | -0.0715 |
| RRIRNRPPRLPRPRPRPTFFPRP | -0.139 |
| RRIRNRPPRLPRPRPRPTFNPRP | -0.506 |
| RRIRNRPPRLPRPRPRPTFPPRP | -0.112 |
| RRIRNRPPRLPRPRPRPTGNPRP | -0.104 |
| RRIRNRPPRLPRPRPRPTGPPRP | 0.126 |
| RRIRNRPPRLPRPRPRPTIQPRP | -0.213 |
| RRIRNRPPRLPRPRPRPTIVPRP | -0.0363 |
| RRIRNRPPRLPRPRPRPTKCPRP | -0.16 |
| RRIRNRPPRLPRPRPRPTKGPRP | 0.0423 |
| RRIRNRPPRLPRPRPRPTMFPRP | -0.247 |
| RRIRNRPPRLPRPRPRPTMKPRP | -0.368 |
| RRIRNRPPRLPRPRPRPTMNPRP | -0.134 |
| RRIRNRPPRLPRPRPRPTMPPRP | 0.0915 |
| RRIRNRPPRLPRPRPRPTMQPRP | 0.0135 |
| RRIRNRPPRLPRPRPRPTNDPRP | 0.0554 |
| RRIRNRPPRLPRPRPRPTPSPRP | 0.338 |
| RRIRNRPPRLPRPRPRPTQDPRP | 0.387 |
| RRIRNRPPRLPRPRPRPTQEPRP | 0.786 |

| Sequence | shrunken log2 fold change |
| --- | --- |
| RRIRNRPPRLPRPRPRPTQFPRP | 0.138 |
| RRIRNRPPRLPRPRPRPTQIPRP | 0.135 |
| RRIRNRPPRLPRPRPRPTQLPRP | -0.0336 |
| RRIRNRPPRLPRPRPRPTQSPRP | 0.291 |
| RRIRNRPPRLPRPRPRPTRHPRP | 0.162 |
| RRIRNRPPRLPRPRPRPTRLPRP | 0.2 |
| RRIRNRPPRLPRPRPRPTRPPRP | 0.663 |
| RRIRNRPPRLPRPRPRPTTAPRP | -0.0817 |
| RRIRNRPPRLPRPRPRPTTDPRP | -0.199 |
| RRIRNRPPRLPRPRPRPTTKPRP | -0.0801 |
| RRIRNRPPRLPRPRPRPTYCPRP | -0.276 |
| RRIRNRPPRLPRPRPRPVADPRP | 0.217 |
| RRIRNRPPRLPRPRPRPVAKPRP | -0.107 |
| RRIRNRPPRLPRPRPRPVANPRP | -0.0653 |
| RRIRNRPPRLPRPRPRPVARPRP | 0.23 |
| RRIRNRPPRLPRPRPRPVDAPRP | 0.154 |
| RRIRNRPPRLPRPRPRPVDIPRP | 0.00355 |
| RRIRNRPPRLPRPRPRPVEKPRP | 0.143 |
| RRIRNRPPRLPRPRPRPVEVPRP | -0.296 |
| RRIRNRPPRLPRPRPRPVFVPRP | -0.123 |
| RRIRNRPPRLPRPRPRPVGKPRP | 0.028 |
| RRIRNRPPRLPRPRPRPVGQPRP | -0.185 |
| RRIRNRPPRLPRPRPRPVHNPRP | -0.289 |
| RRIRNRPPRLPRPRPRPVIAPRP | -0.25 |
| RRIRNRPPRLPRPRPRPVIEPRP | -0.0754 |
